Test in all cases: IEDB peptide-MHC binding, purified MHC/competitive/radioactivity; ≥ and ≤ were set here for values at or beyond the usual limits of such assays
Test [1] deals with HLA-A*02:06.
Test [2] addresses HLA-A*68:02.
The target of test [3] is HLA-A*02:03.
Test [4] addresses HLA-A*02:02.
The target in test [5] is HLA-A*02:01.
Where [6] appears, read: source organism: Vaccinia virus WR.
Setting [7] is: source organism: Influenza A virus.
[8] abbreviates: source organism: Mammarenavirus choriomeningitidis.
Where [9] appears, read: source organism: Mammarenavirus lassaense.

Data on 23 sequences can be found in the Immune Epitope Database (IEDB).

For the sequence FMRFFTLGSI, the IC50 (in general, the midpoint of a concentration-inhibition curve) in test [1] (source organism: SARS-CoV1) came out at 195 nM; in test [2] (source organism: SARS-CoV1) it was 412 nM; in test [3] (source organism: SARS-CoV1), 0.76 nM; in test [4] (source organism: SARS-CoV1) it was 24 nM; in test [5] (source organism: SARS-CoV1), 105 nM.
Take FMSHVKSVT: the half-maximal inhibitory concentration (IC50) was determined as 4320 nM in test [1] (setting [6]); 2600 nM in test [2] (setting [6]); 181 nM in test [3] (setting [6]); 508 nM in test [4] (setting [6]); 873 nM in test [5] (setting [6]).
In the case of FMYTKHSML, the IC50 was 222 nM in test [1] (setting [6]); 3540 nM in test [2] (setting [6]); 0.39 nM in test [3] (setting [6]); 2.4 nM in test [4] (setting [6]); 20 nM in test [5] (setting [6]).
Turning to FQESFYEDIA, the IC50 in test [1] (setting [6]) was 303 nM; in test [2] (setting [6]) it was 2910 nM; in test [3] (setting [6]), 555 nM; in test [4] (setting [6]), 2560 nM; in test [5] (setting [6]), 4840 nM.
Consider FQVDCFLWH, for which the IC50 in test [1] (setting [7]) stood at 93 nM; in test [2] (setting [7]) it was 3660 nM; in test [3] (setting [7]), 1260 nM; in test [4] (setting [7]), 216 nM; in test [5] (setting [7]) it was 336 nM.
Consider FSTSAYLISI, for which the IC50 in test [1] (setting [8]) was determined as 3.5 nM; in test [2] (setting [8]), 1.4 nM; in test [3] (setting [8]), 14 nM; in test [4] (setting [8]), 0.68 nM; in test [5] (setting [8]) it was 9 nM.
For FSTSFYLISI, the concentration for half-maximal inhibition (IC50) came out at 9.2 nM in test [1] (setting [9]); 1.8 nM in test [2] (setting [9]); 53 nM in test [3] (setting [9]); 2.1 nM in test [4] (setting [9]); 32 nM in test [5] (setting [9]).
Take FTEGKINPLL: the IC50 is 86 nM in test [1] (setting [6]); 243 nM in test [2] (setting [6]); 595 nM in test [3] (setting [6]); 150 nM in test [4] (setting [6]); 162 nM in test [5] (setting [6]).
Regarding FTFGDTALYV, the IC50 was determined as 3.5 nM in test [1] (setting [6]); 175 nM in test [2] (setting [6]); 48 nM in test [3] (setting [6]); 24 nM in test [4] (setting [6]); 181 nM in test [5] (setting [6]).
As for FTILEYLYI, the 50% inhibitory concentration (IC50) stood at 267 nM in test [1] (setting [6]); 22 nM in test [2] (setting [6]); 169 nM in test [3] (setting [6]); 1560 nM in test [4] (setting [6]); 68 nM in test [5] (setting [6]).
As to FTILEYLYIM, the 50% inhibitory concentration (IC50) in test [1] (setting [6]) was 40 nM; in test [2] (setting [6]) it was 2170 nM; in test [3] (setting [6]), 3200 nM; in test [4] (setting [6]), 355 nM; in test [5] (setting [6]) it was 95 nM.
The like results for FTKDGKLDDT were, in that order, 898 nM, 4080 nM, 187 nM, 145 nM and 980 nM.
Take FTLLFQLCT: the IC50 in test [1] (source organism: SARS-CoV1) is 140 nM; in test [2] (source organism: SARS-CoV1) it was 2740 nM; in test [3] (source organism: SARS-CoV1), 744 nM; in test [4] (source organism: SARS-CoV1), 1100 nM; in test [5] (source organism: SARS-CoV1), 133 nM.
Turning to FTNSQIFNI, the IC50 in test [1] (setting [6]) turned out to be 4.8 nM; in test [2] (setting [6]), 0.23 nM; in test [3] (setting [6]), 7.1 nM; in test [4] (setting [6]), 6.9 nM; in test [5] (setting [6]), 9 nM.
Regarding FTNSQIFNII, the 50% inhibitory concentration (IC50) in test [1] (setting [6]) turned out to be 1200 nM; in test [2] (setting [6]), 16 nM; in test [3] (setting [6]) it was 457 nM; in test [4] (setting [6]), 143 nM; in test [5] (setting [6]), 1570 nM.
The like results for FTSDYPFYV were, in that order, 3.6 nM, 1.1 nM, 3.9 nM, 2.1 nM and 1.5 nM.
The like results for FVATFRDML were, in that order, 487 nM, 12 nM, 206 nM, 2350 nM and 2260 nM.
The like results for FVATFRDMLL were, in that order, 4.4 nM, 409 nM, 18 nM, 0.7 nM and 16 nM.
Take FVDEFYAYL: the IC50 stood at 0.36 nM in test [1] (source organism: SARS-CoV1); 38 nM in test [2] (source organism: SARS-CoV1); 2.6 nM in test [3] (source organism: SARS-CoV1); 0.089 nM in test [4] (source organism: SARS-CoV1); 0.22 nM in test [5] (source organism: SARS-CoV1).
For the sequence FVDGVPFVV, the IC50 is 0.91 nM in test [1] (source organism: SARS-CoV1); 168 nM in test [2] (source organism: SARS-CoV1); 86 nM in test [3] (source organism: SARS-CoV1); 9.6 nM in test [4] (source organism: SARS-CoV1); 0.97 nM in test [5] (source organism: SARS-CoV1).
As for FVDTMSIYI, the IC50 was determined as 16 nM in test [1] (setting [6]); 465 nM in test [2] (setting [6]); 370 nM in test [3] (setting [6]); 21 nM in test [4] (setting [6]); 9.6 nM in test [5] (setting [6]).
On to FVDTMSIYIA, for which the IC50 is 1100 nM in test [1] (setting [6]); 229 nM in test [2] (setting [6]); 2390 nM in test [3] (setting [6]); 154 nM in test [4] (setting [6]); 1630 nM in test [5] (setting [6]).
Consider FVFNGTSWFI, for which the concentration for half-maximal inhibition (IC50) in test [1] (source organism: SARS-CoV1) turned out to be 0.44 nM; in test [2] (source organism: SARS-CoV1) it was 0.33 nM; in test [3] (source organism: SARS-CoV1), 2.2 nM; in test [4] (source organism: SARS-CoV1), 1 nM; in test [5] (source organism: SARS-CoV1), 1.1 nM.
